Laboratory results published in patent US20170008937.

Biological target: GST-Rac1 (UniProt P63000)

## TcdASAS (Clostridium difficile toxin A with VNN mutated to SAS: V1109S, N1110A, N1111S)
  Rac1 glucosylation in vitro (Western blot, 100 nM toxin, 3 hours): not impaired in their capacity to glucosylate Rac1 in vitro
